T1: bone morphogenetic protein-1 (human, UniProt P13497-2 121-730)
T1 chain: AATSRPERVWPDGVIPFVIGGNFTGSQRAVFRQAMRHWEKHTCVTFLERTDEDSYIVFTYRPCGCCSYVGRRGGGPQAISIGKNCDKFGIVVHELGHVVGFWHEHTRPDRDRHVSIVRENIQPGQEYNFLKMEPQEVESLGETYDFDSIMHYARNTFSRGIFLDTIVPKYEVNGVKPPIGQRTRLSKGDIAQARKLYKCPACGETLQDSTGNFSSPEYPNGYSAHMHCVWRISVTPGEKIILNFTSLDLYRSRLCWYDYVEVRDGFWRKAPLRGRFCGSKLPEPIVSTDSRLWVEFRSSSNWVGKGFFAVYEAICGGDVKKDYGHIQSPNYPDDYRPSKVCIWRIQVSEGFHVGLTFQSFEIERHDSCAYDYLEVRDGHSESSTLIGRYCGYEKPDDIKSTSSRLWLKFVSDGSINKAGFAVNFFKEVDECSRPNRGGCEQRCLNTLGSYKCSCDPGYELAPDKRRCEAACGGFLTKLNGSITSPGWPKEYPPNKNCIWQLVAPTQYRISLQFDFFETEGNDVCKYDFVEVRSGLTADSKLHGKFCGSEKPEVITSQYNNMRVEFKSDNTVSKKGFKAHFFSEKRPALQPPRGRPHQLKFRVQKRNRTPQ

T2: procollagen C-proteinase enhancer-2 with N-terminal 6His-tag (human, UniProt Q9UKZ9 24-415)
T2 chain: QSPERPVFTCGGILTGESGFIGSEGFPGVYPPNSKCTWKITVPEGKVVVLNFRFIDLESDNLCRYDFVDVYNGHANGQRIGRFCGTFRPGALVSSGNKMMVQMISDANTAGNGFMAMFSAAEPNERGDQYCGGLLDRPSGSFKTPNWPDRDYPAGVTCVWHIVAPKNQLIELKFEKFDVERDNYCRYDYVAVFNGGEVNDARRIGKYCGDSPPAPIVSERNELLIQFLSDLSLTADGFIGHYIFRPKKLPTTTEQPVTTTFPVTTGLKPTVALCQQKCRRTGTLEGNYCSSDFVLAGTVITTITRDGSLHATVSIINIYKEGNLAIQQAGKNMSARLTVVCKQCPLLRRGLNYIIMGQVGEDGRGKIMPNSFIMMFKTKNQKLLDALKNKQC

B1: CUB2NTR region of PCPE-2 (domain or fragment)
chain: CGGLLDRPSGSFKTPNWPDRDYPAGVTCVWHIVAPKNQLIELKFEKFDVERDNYCRYDYVAVFNGGEVNDARRIGKYCGDSPPAPIVSERNELLIQFLSDLSLTADGFIGHYIFRPKKLPTTTEQPVTTTFPVTTGLKPTVALCQQKCRRTGTLEGNYCSSDFVLAGTVITTITRDGSLHATVSIINIYKEGNLAIQQAGKNMSARLTVVCKQCPLLRRGLNYIIMGQVGEDGRGKIMPNSFIMMFKTKNQKLLDALKNKQC
B2: BMP-1[catCUB1CUB2] (domain or fragment)
chain: AATSRPERVWPDGVIPFVIGGNFTGSQRAVFRQAMRHWEKHTCVTFLERTDEDSYIVFTYRPCGCCSYVGRRGGGPQAISIGKNCDKFGIVVHELGHVVGFWHEHTRPDRDRHVSIVRENIQPGQEYNFLKMEPQEVESLGETYDFDSIMHYARNTFSRGIFLDTIVPKYEVNGVKPPIGQRTRLSKGDIAQARKLYKCPACGETLQDSTGNFSSPEYPNGYSAHMHCVWRISVTPGEKIILNFTSLDLYRSRLCWYDYVEVRDGFWRKAPLRGRFCGSKLPEPIVSTDSRLWVEFRSSSNWVGKGFFAVYEAICGGDVKKDYGHIQSPNYPDDYRPSKVCIWRIQVSEGFHVGLTFQSFEIERHDSCAYDYLEVRDGHSESSTLIGRYCGYEKPDDIKSTSSRLWLKFVSDGSINKAGFAVNFFK

How the values were obtained:
[1] = target: T1, bone morphogenetic protein-1; assay: SPR; steady-state fit
[2] = target: T1, bone morphogenetic protein-1; assay: SPR; heterogeneous ligand model, kd1
[3] = target: T1, bone morphogenetic protein-1; assay: SPR; heterogeneous ligand model, KD1 (Rmax1 14%)
[4] = target: T1, bone morphogenetic protein-1; assay: SPR; heterogeneous ligand model, second site kd2
[5] = target: T1, bone morphogenetic protein-1; assay: SPR; heterogeneous ligand model, second site KD2 (Rmax2 86%)
[6] = target: T2, procollagen C-proteinase enhancer-2 …; assay: SPR; steady-state fit
[7] = target: T2, procollagen C-proteinase enhancer-2 …; assay: SPR; heterogeneous ligand model, kd1
[8] = target: T2, procollagen C-proteinase enhancer-2 …; assay: SPR; heterogeneous ligand model, KD1 (Rmax1 42%)
[9] = target: T2, procollagen C-proteinase enhancer-2 …; assay: SPR; heterogeneous ligand model, second site kd2
[10] = target: T2, procollagen C-proteinase enhancer-2 …; assay: SPR; heterogeneous ligand model, second site KD2 (Rmax2 58%)

Row | Binder | Kd [1] [nM] | koff [2] [s⁻¹] | Kd [3] [nM] | koff [4] [s⁻¹] | Kd [5] [nM] | Kd [6] [nM] | koff [7] [s⁻¹] | Kd [8] [nM] | koff [9] [s⁻¹] | Kd [10] [nM]
1 | B1 | 52 | 0.005 | 6.29 | 0.198 | 26.6 | – | – | – | – | –
2 | B2 | – | – | – | – | – | 24 | 0.0024 | 1.84 | 0.03 | 66

Source: paper PMC10696041 (2023)
